Biological target: Escherichia coli β sliding clamp (Escherichia coli) (UniProt P0A988)
Sequence of UniProt P0A988 (P0A988 whole entry): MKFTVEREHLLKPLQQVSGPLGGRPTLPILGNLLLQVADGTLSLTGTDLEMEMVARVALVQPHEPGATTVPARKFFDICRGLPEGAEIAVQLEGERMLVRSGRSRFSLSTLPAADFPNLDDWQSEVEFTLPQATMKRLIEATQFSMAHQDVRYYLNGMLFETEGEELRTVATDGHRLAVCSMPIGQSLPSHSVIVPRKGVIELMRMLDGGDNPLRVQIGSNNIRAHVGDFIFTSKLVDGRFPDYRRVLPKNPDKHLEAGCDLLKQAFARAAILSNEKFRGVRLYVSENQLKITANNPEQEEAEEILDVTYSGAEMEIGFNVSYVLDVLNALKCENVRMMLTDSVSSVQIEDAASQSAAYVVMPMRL

“Acidiphilium IS1634 transposase, wild type (enzyme)” gave a papillae in the in vivo papillation assay of transposition in E. coli DH5α (quantification for 8 colonies) of 3.15.

Source: PMC4549789
